In US20090082270A1 (ACCELERON PHARMA, published 2009):

T1: human Cerberus (human, UniProt O95813 18-267, limits assumed)
T1 construct: it includes the native leader
T1 sequence: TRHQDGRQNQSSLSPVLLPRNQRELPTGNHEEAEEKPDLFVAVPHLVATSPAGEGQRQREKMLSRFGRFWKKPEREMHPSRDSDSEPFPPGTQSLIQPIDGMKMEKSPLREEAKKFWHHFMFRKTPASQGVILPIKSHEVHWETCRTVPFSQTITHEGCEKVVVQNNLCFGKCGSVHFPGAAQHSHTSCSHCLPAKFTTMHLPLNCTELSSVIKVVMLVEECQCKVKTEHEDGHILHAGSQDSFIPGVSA

B1: Human Coco, full length, Fc (TGGG linker and mFc) (Fc fusion)
chain: GRPEPQSPRPQSWAAANQTWALGPGALPPLVPASALGSWKAFLGLQKARQLGMGRLQRGQDEVAAVTLPLNPQEVIQGMCKAVPFVQVFSRPGCSAIRLRNHLCFGHCSSLYIPGSDPTPLVLCNSCMPARKRWAPVVLWCLTGSSASRRRVKISTMLIEGCHCSPKATGGGTHTCPPCPAPELLGGPSVFLFPPKPKDTLMISRTPEVTCVVVDVSHEDPEVKFNWYVDGVEVHNAKTKPREEQYNSTYRVVSVLTVLHQDWLNGKEYKCKVSNKALPVPIEKTISKAKGQPREPQVYTLPPSREEMTKNQVSLTCLVKGFYPSDIAVEWESNGQPENNYKTTPPVLDSDGSFFLYSKLTVDKSRWQQGNVFSCSVMHEALHNHYTQKSLSLSPGK
notes: Tested as conditioned medium; also called Coco-mFc; human Coco-mFc
B2: Activin A (ligand, UniProt P08476 311-426, looked up)
chain: GLECDGKVNICCKKQFFVSFKDIGWNDWIIAPSGYHANYCEGECPSHIAGTSGSSLSFHSTVINHYRMRGHSPFANLKSCCVPTKLRPMSMLYYDDGQNIIKKDIQNMIVEECGCS

Experiments:
Activin A = target: B2; experiment: "similar experiments" to the A-204 reporter gene assay; method not further described
human Cerberus = target: T1, human Cerberus; experiment: as above

Row | binding result (Activin A) | binding result (human Cerberus) | Binder
1 | no binding |  | B1
2 |  | no binding | B2
